Source: the supplement of paper PMC9732359
± gives the uncertainty stated by the source.

Assay: protein stability index of a GFP-peptide fusion (yeast GPS) (PSI 1-4); higher = more stable; sorted into four equal gates, so the index is relative within each strain
Method in brief: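 Each library plasmid carries Cherry plus GFP with a tiled 17-residue yeast protein peptide fused downstream, and the pooled library was carried in yeast. Mid-log cultures in leucine-free medium were sorted into four equal gates by GFP/Cherry ratio. Reads from Illumina sequencing of PCR-amplified plasmids from each gate were assigned to strains by barcodes. Per peptide, the protein stability index was computed as the summed products of gate read frequency and gate number.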

| Sequence | protein stability index (doa10∆) | protein stability index (pdr5∆) | protein stability index (san1∆) | protein stability index (ubr1∆) |
| --- | --- | --- | --- | --- |
| VDAGIALNSMCASIPIA [RRP46] | 1.65 ± 0.12 | 1.63 ± 0.12 | 1.71 ± 0.15 | 1.66 ± 0.16 |
| LQGEVENIAQMKPKAEK [SMC4] | 3.02 ± 0.15 | 3.4 ± 0.12 | 3.19 ± 0.075 | 3.11 ± 0.075 |
| SNGSGIVAAGGGSGAAT [CSL4] | 3.53 ± 0.12 | 3.53 ± 0.18 | 3.45 ± 0.11 | 3.48 ± 0.11 |
| NNIRQAICRYANVIKAL [RRP4] | 1.41 ± 0.11 | 1.36 ± 0.07 | 1.17 ± 0.14 | 1.43 ± 0.14 |
| SAFKFIHTQLSEIKQQI [YJL039C/NUP192] | 2.33 ± 0.1 | 2.62 ± 0.087 | 2.82 ± 0.12 | 2.83 ± 0.061 |
| TLAYDRGHRIRREFKQY [PRP8] | 2.82 ± 0.08 | 2.63 ± 0.058 | 2.35 ± 0.098 | 2.3 ± 0.052 |
| QQQQQQNGQQPPTTSNL [YML103C/NUP188] | 2.502 ± 0.02 | 2.737 ± 0.022 | 2.617 ± 0.019 | 2.661 ± 0.02 |
| GIQEVVHNTNSFIISSL [NUT1] | 2.12 ± 0.074 | 2.46 ± 0.059 | 2.04 ± 0.087 | 2.54 ± 0.066 |
| KTSLSIKVENLNDTTEK [SMC2] | 2.87 ± 0.058 | 2.97 ± 0.081 | 3.09 ± 0.063 | 2.89 ± 0.05 |
| NHVMYTEVSRKSMKYVK [ECM29] | 2.37 ± 0.055 | 2.61 ± 0.06 | 2.27 ± 0.078 | 2.23 ± 0.039 |
| DPETTATQKESLEMVPK [RGR1] | 3.12 ± 0.063 | 3.07 ± 0.054 | 2.94 ± 0.048 | 3.11 ± 0.046 |
| GLMKSYKIPKVMKDIYK [ESC2] | 3.15 ± 0.27 | 3.38 ± 0.12 | 2.42 ± 0.26 | 2.92 ± 0.11 |
| EAESQWYIEKVIRIPMQ [CSI1] | – | 2.96 ± 0.24 | – | 2.71 ± 0.24 |
| ICLMTLIETVFVKNIRM [RPN9] | 1.22 ± 0.064 | 1.3 ± 0.069 | 1.22 ± 0.13 | 1.35 ± 0.074 |
| VFLLLQAYFSRLELPVD [BRR2] | 1.59 ± 0.05 | 1.31 ± 0.043 | 1.26 ± 0.089 | 1.48 ± 0.041 |
| LSHIVYFLVLSPYGNLQ [RPN5] | 1.53 ± 0.054 | 1.33 ± 0.055 | 1.25 ± 0.087 | 1.12 ± 0.034 |
| KFKRHHSDRYHRVAENW [RPL32] | 3 ± 0.072 | 3.21 ± 0.065 | 3.2 ± 0.05 | 3.07 ± 0.045 |
| FIRLPHWPLNWYLILSI [RGR1] | 1.46 ± 0.077 | 1.4 ± 0.064 | 1.33 ± 0.23 | 1.37 ± 0.062 |
| QALRVLRLKPGRKYTTL [RPL16B] | 2.34 ± 0.055 | 1.98 ± 0.051 | 2.37 ± 0.057 | 2.73 ± 0.048 |
| VSMVKRAIDSLIQKGYL [CDC53] | 1.74 ± 0.053 | 1.82 ± 0.058 | 2.03 ± 0.11 | 1.74 ± 0.052 |
| LSIWIKNYPEYFLKVTF [IRR1] | 1.88 ± 0.056 | 1.77 ± 0.037 | 2.2 ± 0.076 | 1.8 ± 0.047 |
| VLSIPPANHLQSDFCLS [YGL100W/SEH1] | 2.94 ± 0.11 | 2.44 ± 0.1 | 2.52 ± 0.11 | 2.59 ± 0.044 |
| YNSVAEAKKFEPTYRLV [RPS24A] | 2.87 ± 0.14 | 2.95 ± 0.13 | 2.71 ± 0.18 | 2.74 ± 0.072 |
| ILNFLNQEDLFELVHHF [YML103C/NUP188] | 2.56 ± 0.14 | 2.8 ± 0.083 | 1.88 ± 0.22 | 2.16 ± 0.072 |
| QDLSRNTLGKGQNCLDI [SNU114] | 3.35 ± 0.12 | 3.28 ± 0.12 | 3.28 ± 0.16 | 3.61 ± 0.15 |
| GPPYTTDEHLIFNSGKM [ISW2] | 3.13 ± 0.059 | 3.26 ± 0.058 | 3.06 ± 0.049 | 2.99 ± 0.048 |

| Sequence | protein stability index (doa10∆) | protein stability index (pdr5∆) | protein stability index (san1∆) | protein stability index (ubr1∆) |
| --- | --- | --- | --- | --- |
| QKVNAVDSTFQKVSENF [SMC3] | 3.29 ± 0.091 | 3.28 ± 0.079 | 3.44 ± 0.06 | 3.21 ± 0.04 |
| YKRSIVRNYKPLINRLK [SWI1] | 2.4 ± 0.13 | 2.7 ± 0.1 | 1.65 ± 0.21 | 1.98 ± 0.15 |
| LQRTILNRIINHMLIDS [RGR1] | 2.76 ± 0.057 | 2.4 ± 0.081 | 2.21 ± 0.093 | 1.72 ± 0.066 |
| IVDKYIGESARIIREMF [RPT4] | 2.5 ± 0.14 | 2.6 ± 0.088 | 2.48 ± 0.11 | 2.44 ± 0.079 |
| KEIDPSQTTQLAGMDVE [FAS2] | 3.14 ± 0.086 | 3.28 ± 0.11 | 3.15 ± 0.077 | 3.6 ± 0.069 |
| IASLERELILAKKQNYK [YCG1] | 2.6 ± 0.07 | 3.07 ± 0.06 | 2.14 ± 0.084 | 2.42 ± 0.041 |
| YVNYEISTAKAWGALIT [YML103C/NUP188] | 1.32 ± 0.052 | 1.43 ± 0.049 | 1.3 ± 0.073 | 1.4 ± 0.06 |
| YQWNLDGLQQLDKYLYV [RPN1] | 2.92 ± 0.068 | 3.08 ± 0.058 | 2.49 ± 0.12 | 2.2 ± 0.046 |
| LKLDKIIHVLTTMFENT [RGR1] | 2.07 ± 0.049 | 2.43 ± 0.069 | 2.39 ± 0.075 | 2.73 ± 0.044 |
| VTQQKRSLDENRLEIKY [SMC1] | 2.06 ± 0.064 | 2.15 ± 0.096 | 2.12 ± 0.16 | 2.08 ± 0.062 |
| ESLYDLIEFQPSQGVHY [MED6] | 2.84 ± 0.078 | 2.87 ± 0.061 | 2.91 ± 0.051 | 2.7 ± 0.051 |
| LVQLPKSAMDTFKSVSK [POP3] | 2.65 ± 0.052 | 2.85 ± 0.044 | 2.75 ± 0.047 | 2.54 ± 0.036 |
| YTPEESAWIWPMDEETK [RPC25] | 2.34 ± 0.068 | 2.62 ± 0.074 | 2.54 ± 0.086 | 2.65 ± 0.098 |
| KVEIPLPNEAGRLEIFK [RPT4] | – | 3.09 ± 0.17 | 2.52 ± 0.18 | 2.74 ± 0.21 |
| VMPVPNVRSSVLQKVIE [SKP1] | 2.33 ± 0.05 | 2.43 ± 0.052 | 2.38 ± 0.052 | 2.35 ± 0.045 |
| DPPIIIFINYKQTADWL [PRP28] | 1.43 ± 0.031 | 1.61 ± 0.048 | 1.9 ± 0.072 | 1.95 ± 0.042 |
| TKKTITPMGGFVHYGEI [RPL3] | 3.2 ± 0.074 | 3.1 ± 0.072 | 3.08 ± 0.093 | 3.01 ± 0.046 |
| PLAAGNFVSEKGDLRRG [RPC53] | – | 3.4 ± 0.19 | 3.31 ± 0.17 | 3.24 ± 0.11 |
| KQIVHDSGRGAPLAKVV [RPL2A] | 2.16 ± 0.22 | 2.16 ± 0.18 | – | 2.41 ± 0.17 |
| IFVSILSDRANKNQDAF [ARP9] | 2.85 ± 0.057 | 2.39 ± 0.058 | 2.53 ± 0.066 | 2.87 ± 0.056 |
| ESTETGYVIKVFNNGIV [DIS3] | 2.34 ± 0.19 | 3.08 ± 0.21 | 2.13 ± 0.14 | 1.21 ± 0.24 |
| SMERKVQGAAPWDTSLE [MCD1] | 3.5 ± 0.11 | 3.1 ± 0.089 | 3.25 ± 0.087 | 3.44 ± 0.16 |
| QMSLEANVVDITNDWEQ [YJR042W/NUP85] | 2.65 ± 0.077 | 2.77 ± 0.064 | 2.92 ± 0.058 | 2.87 ± 0.058 |
| VDIKGEDLHEKNDSAEV [NUT1] | 3.54 ± 0.12 | 3.37 ± 0.2 | 2.93 ± 0.19 | 3.55 ± 0.12 |
| NMLLDPAANESEVANNG [RRP42] | 2.05 ± 0.082 | 2.74 ± 0.059 | 2.64 ± 0.083 | 2.34 ± 0.042 |
| ARAAKIAPRPLDLLRPV [RPL13B] | 2.81 ± 0.07 | 3.04 ± 0.064 | 3.07 ± 0.056 | 2.41 ± 0.043 |
